Tests used:
human AXL (full length) [1] = target: T1, human AXL (full length) (human, UniProt P30530 26-894); test: FMAT screening assay, HEK-293F cells transiently expressing human AXL
T1 construct: also called TH1021-AXL; TH1021-hAXL

[2] = target: T2, human AXL with a cynomolgus monkey extracellular domain (ECD) (cynomolgus monkey (Macaca …, UniProt P30530 26-894)); test: flow cytometry, HEK293T cells with human AXL carrying cynomolgus ECD
T2 construct: Chimera on transfected HEK293T cells; also called cynomolgus AXL; cynomolgus AXL-ECD
T2 chain: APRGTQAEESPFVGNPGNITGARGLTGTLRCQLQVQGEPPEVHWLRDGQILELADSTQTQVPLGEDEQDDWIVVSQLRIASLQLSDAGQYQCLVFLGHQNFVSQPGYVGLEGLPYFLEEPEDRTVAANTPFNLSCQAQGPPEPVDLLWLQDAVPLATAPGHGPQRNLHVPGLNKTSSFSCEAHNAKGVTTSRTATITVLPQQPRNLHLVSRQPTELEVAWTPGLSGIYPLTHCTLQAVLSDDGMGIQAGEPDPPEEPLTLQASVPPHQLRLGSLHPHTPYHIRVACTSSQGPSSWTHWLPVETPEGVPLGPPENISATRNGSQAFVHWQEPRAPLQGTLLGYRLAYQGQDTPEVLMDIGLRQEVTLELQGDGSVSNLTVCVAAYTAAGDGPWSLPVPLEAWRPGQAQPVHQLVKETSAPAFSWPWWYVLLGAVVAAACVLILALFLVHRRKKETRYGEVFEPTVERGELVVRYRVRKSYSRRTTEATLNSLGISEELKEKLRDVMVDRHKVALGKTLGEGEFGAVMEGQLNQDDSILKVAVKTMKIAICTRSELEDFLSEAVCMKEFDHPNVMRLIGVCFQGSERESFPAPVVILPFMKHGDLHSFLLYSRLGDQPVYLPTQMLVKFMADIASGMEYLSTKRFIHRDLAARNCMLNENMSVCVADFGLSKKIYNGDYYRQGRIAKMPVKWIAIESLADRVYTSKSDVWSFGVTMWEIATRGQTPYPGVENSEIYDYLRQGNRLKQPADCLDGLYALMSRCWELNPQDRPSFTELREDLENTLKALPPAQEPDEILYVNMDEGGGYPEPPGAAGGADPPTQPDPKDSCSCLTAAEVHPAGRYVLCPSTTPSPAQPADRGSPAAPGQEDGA

AXLECDHis = target: T3, AXLECDHis (human, UniProt P30530 26-447); test: BLI (Octet), IgG on anti-human Fc sensor, AXLECDHis analyte
T3 construct: theoretical mass 46 kDa used; also called extracellular domain (ECD) of human AXL (aa 1-447) with a C-terminal His tag; soluble recombinant AXL extracellular domain

human AXL (full length) [3] = target: T1, human AXL (full length); test: flow cytometry, HEK293T cells with full-length human AXL
[4] = target: T4, Homo sapiens AXL-Mus musculus Ig2 domain (p33-AXL-mIg2) (human-mouse chimera, UniProt P30530 26-894); test: flow cytometry, 1 µg/mL antibody, transfected HEK293F cells
T4 construct: Expressed in HEK293F cells; also called hsAXL-mmIg2; TH1021-mIg2
T4 chain: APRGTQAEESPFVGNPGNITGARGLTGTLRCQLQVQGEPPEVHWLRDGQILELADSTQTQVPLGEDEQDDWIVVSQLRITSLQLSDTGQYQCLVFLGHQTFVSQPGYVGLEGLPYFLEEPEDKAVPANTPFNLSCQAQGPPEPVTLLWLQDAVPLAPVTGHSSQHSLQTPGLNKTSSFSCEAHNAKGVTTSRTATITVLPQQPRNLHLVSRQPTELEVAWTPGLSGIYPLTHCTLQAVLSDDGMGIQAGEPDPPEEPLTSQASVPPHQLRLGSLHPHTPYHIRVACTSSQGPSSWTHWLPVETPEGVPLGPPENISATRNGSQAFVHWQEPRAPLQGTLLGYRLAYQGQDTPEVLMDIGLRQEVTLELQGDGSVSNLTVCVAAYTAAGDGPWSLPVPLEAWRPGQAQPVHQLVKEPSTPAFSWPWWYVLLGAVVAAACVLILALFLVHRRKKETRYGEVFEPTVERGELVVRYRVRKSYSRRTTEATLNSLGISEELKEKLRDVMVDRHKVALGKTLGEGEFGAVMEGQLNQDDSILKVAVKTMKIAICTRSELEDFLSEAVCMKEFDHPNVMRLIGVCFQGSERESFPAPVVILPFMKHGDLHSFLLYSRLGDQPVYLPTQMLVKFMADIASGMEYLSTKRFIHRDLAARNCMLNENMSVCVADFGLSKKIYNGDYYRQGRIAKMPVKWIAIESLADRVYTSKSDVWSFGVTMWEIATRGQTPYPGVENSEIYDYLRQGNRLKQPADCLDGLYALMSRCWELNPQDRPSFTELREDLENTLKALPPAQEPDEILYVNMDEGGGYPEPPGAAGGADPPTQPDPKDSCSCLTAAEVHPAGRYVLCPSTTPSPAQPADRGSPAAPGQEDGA

[5] = target: T5, Homo sapiens AXL-Mus musculus Ig1 domain (p33-AXL-mIg1) (human-mouse chimera, UniProt P30530 8-894); test: as above
T5 construct: Expressed in HEK293F cells; also called hsAXL-mmIg1; hsAXL-mmIgl
T5 chain: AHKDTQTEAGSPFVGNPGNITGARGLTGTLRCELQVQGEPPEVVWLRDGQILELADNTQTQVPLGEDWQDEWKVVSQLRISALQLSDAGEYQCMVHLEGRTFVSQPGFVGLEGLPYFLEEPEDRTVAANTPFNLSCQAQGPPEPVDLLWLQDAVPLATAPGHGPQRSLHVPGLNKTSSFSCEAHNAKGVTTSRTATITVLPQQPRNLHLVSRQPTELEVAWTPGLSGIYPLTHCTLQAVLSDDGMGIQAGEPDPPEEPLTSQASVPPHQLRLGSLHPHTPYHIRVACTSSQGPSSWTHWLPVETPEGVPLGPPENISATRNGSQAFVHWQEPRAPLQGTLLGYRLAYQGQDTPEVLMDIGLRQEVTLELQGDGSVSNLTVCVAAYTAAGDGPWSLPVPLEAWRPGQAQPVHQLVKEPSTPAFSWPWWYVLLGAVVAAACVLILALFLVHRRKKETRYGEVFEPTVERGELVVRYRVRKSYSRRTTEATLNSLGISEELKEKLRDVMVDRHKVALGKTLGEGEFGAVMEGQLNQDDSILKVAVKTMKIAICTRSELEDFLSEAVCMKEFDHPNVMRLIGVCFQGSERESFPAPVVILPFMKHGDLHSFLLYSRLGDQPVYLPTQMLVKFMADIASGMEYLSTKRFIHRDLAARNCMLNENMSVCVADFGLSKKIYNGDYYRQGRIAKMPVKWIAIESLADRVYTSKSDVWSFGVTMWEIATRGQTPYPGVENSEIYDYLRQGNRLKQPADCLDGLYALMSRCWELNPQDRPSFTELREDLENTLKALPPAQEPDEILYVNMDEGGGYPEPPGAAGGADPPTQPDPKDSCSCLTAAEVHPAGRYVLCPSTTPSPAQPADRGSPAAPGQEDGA

[6] = target: T6, Homo sapiens AXL-Mus musculus FN2 domain (p33-AXL-mFN2) (human-mouse chimera, UniProt P30530 26-894); test: as above
T6 construct: Expressed in HEK293F cells; also called hsAXL-mmFN2; TH1021-mFN2
T6 chain: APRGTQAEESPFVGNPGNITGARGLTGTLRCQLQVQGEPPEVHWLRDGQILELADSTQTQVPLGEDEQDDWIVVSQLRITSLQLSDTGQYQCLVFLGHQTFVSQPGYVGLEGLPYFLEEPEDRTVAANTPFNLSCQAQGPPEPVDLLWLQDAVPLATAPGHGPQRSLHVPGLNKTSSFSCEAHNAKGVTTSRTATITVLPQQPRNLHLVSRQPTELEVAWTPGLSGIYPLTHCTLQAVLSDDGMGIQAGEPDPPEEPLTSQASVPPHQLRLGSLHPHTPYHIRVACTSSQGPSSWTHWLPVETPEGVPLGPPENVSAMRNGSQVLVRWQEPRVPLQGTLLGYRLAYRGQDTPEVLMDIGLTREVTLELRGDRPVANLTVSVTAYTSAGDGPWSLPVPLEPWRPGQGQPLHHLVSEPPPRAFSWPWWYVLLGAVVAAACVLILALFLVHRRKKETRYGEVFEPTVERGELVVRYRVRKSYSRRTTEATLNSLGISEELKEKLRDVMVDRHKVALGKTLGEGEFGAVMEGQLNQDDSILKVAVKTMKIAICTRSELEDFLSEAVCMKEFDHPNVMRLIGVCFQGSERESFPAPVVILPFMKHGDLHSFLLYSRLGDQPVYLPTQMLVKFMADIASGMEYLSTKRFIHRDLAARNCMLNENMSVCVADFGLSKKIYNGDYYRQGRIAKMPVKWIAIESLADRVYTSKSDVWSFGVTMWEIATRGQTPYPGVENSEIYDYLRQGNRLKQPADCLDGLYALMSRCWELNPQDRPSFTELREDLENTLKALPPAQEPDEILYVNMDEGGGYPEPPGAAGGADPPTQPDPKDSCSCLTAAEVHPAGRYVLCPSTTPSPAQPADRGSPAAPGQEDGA

B1: IgG1-AXL-140 (antibody, V domains shown)
VH: EVQLLESGGGLVQPGGSLRLSCAASGFTFSSYAMTWVRQAPGKGLEWVSAISISGASTFYADSVKGRFTISRDNSKNTLSLQMNSLRAEDTAVYFCRGYSGYVYDAFDIWGQGTMVTVSS
VL: DIQMTQSPSSLSASVGDRVTITCRASQGISNWLAWYQQKPEKAPKSLIYAASSLQSGVPSRFSGSGSGTDFTLTISSLQPEDFATYYCQQYNSYPLTFGGGTKVEIK
Which EC50 (human AXL (full length) [1]) does the source give for B1 here?
The EC50 was 0.0026 µg/mL.

What about the “Maximal binding (Arbitrary units)” value (human AXL (full length) [1]) of the same binder?
The value was 2890 arbitrary units.

B2: IgG1-AXL-187 (antibody, V domains shown)
VH: QVPLQQWGAGLLKPSETLSLTCAVYGGSFSGYHWSWIRQPPGKGLEWIGEISHSGRTNYNPSLKSRVTISIDTSKNQFSLKLSSVTAADTAVYYCASFITMIRGTIITHFDYWGQGTLVTVSS
VL: DIQMTQSPSSLSASVGDRVTITCRASQGISSWLAWYQQKPEKAPKSLIYAASSLQSGVPSRFSGSGSGTDFTLTISSLQPEDFATYYCQQYHSYPYTFGQGTKLEIK
Which EC50 (human AXL (full length) [1]) does the source give for B2 here?
The EC50 was 0.0065 µg/mL.

And the “Maximal binding (Arbitrary units)” value (human AXL (full length) [1])?
Its value is 2560 arbitrary units.

B3: IgG1-AXL-726-M101L (antibody, V domains shown)
VH: QVQLQQWGAGLLKPSETLSLTCAIDGGSFSGYYWSWIRQPPGKGLEWIGEISHSGRTNYNPSLKSRVTISIDTSKNQFSLKLSSVAAADTAVYYCARFITLIRGAIITHFDYWGQGALVTVSS
VL: DIQMTQSPSSLSASVGDRVTITCRASQGISSWLAWYQQKPEKAPKSLIYAASSLQSGVPSRFSGSGSGTDFTLTISSLQPEDFATYYCQQYHSYPYTFGQGTKLEIK
notes: Expressed as human IgG1,κ
What does the source list for B3?
EC50 [2]: 0.25 µg/mL; Kd (AXLECDHis): 0.3 nM; koff (AXLECDHis): 6.9e-05 s⁻¹; kon (AXLECDHis): 210000 M⁻¹ s⁻¹; EC50 (human AXL (full length) [3]): 0.184 µg/mL

B4: IgG1-AXL-613-08 (antibody, V domains shown)
VH: QVQLVQSGAEVKKPGSSVKVSCKASGGTFSSYAINWMRQAPGQGLEWMGRIIPIFGIVNYAQKFQGRVTLTADKSTSTAYMELSSLRSEDTAVYYCARRGNYYGSGSPDVFDIWGQGTMVTVSS
VL: EIVLTQSPATLSLSPGERATLSCRASQSVSSYLAWYQQKPGQAPRLLIYDASNRATGIPARFSGSGSGTDFTLTISSLEPEDFAVYYCQQRSNWLTFGGGTKVEIK
Which EC50 (human AXL (full length) [1]) does the source give for B4 here?
The EC50 was 0.0242 µg/mL.

What about the “Maximal binding (Arbitrary units)” value (human AXL (full length) [1]) of the same binder?
The value was 2210 arbitrary units.

B5: IgG1-AXL-154 (antibody, V domains shown)
VH: EVQLLDSGGGLVQPGGSLRLSCAASGFTFSSYAMSWVRQAPGKGLEWVSAISIGGGNAYYADSVKGRFTISRDNSKNTLYLQMNSLRAADTAVYYCAKPGFIMVRGPLDYWGQGALVTVSS
VL: not shown
Does B5 bind [4]?
Result: binds

Does B5 bind [5]?
Result: binds

Does B5 bind [6]?
Result: binds

Reference: US20180326084A1 (Genmab, published 2018)
